# Results taken from patent US20030118612A1 (MAXYGEN, published 2003).
# Changes are numbered by the printed parent chain. Numbers in names are those of the source.
# T1: human G-CSF receptor (human, UniProt Q99062 25-836)
# T1 sequence (looked up): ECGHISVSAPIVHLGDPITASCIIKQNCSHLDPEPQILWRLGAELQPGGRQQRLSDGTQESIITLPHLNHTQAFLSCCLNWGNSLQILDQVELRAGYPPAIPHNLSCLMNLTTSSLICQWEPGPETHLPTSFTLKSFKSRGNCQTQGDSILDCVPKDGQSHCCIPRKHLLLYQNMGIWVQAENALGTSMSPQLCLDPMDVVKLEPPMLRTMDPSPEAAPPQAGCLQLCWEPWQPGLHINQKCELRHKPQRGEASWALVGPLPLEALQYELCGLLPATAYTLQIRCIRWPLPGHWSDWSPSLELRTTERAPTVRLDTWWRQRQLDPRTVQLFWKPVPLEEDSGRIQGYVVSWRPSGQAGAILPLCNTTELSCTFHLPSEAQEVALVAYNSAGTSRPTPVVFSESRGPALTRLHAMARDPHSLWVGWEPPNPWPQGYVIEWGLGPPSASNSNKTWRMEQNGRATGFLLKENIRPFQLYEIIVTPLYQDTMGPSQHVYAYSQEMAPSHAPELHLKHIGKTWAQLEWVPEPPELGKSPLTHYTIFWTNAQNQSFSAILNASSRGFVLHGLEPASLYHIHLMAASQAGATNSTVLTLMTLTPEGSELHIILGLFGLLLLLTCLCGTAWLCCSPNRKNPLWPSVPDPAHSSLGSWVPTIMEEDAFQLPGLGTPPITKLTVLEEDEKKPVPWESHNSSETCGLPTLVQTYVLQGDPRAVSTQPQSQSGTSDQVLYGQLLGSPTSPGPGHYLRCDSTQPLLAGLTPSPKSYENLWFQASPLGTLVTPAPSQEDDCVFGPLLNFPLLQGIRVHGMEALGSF
# B1: G-CSF variant 23Q conjugated to SPA-PEG 5000 (ligand)
# chain: TPLGPASSLPQSFLLKCLEQVRQIQGDGAALQEKLCATYKLCHPEELVLLGHSLGIPWAPLSSCPSQALQLAGCLSQLHSGLFLYQGLLQALEGISPELGPTLDTLQLDVADFATTIWQQMEELGMAPALQPTQGAMPAFASAFQRRAGGVLVASHLQSFLEVSYRVLRHLAQP
# modifications: SPA-PEG 5000 conjugated to the available PEGylation sites
# B2: G-CSF variant K16/34/40R Q70K Q90K Q120K conjugated to SPA-PEG 5000 (ligand)
# chain: B1 chain with K16R, Q23K, K34R, K40R, Q70K, Q90K, Q120K
# modifications: SPA-PEG 5000 conjugated to the available PEGylation sites
# B3: G-CSF variant K16/34/40R Q70K Q90K T133K, non-conjugated (ligand)
# chain: B1 chain with K16R, Q23K, K34R, K40R, Q70K, Q90K, T133K
# B4: G-CSF variant K16/34/40R Q70K Q90K T133K conjugated to SPA-PEG 5000 (ligand)
# chain: B1 chain with K16R, Q23K, K34R, K40R, Q70K, Q90K, T133K
# modifications: SPA-PEG 5000 conjugated to the available PEGylation sites
# B5: G-CSF variant K16/34/40R Q70K T105K Q120K, non-conjugated (ligand)
# chain: B1 chain with K16R, Q23K, K34R, K40R, Q70K, T105K, Q120K
# B6: G-CSF variant K16/34/40R Q70K T105K Q120K conjugated to SPA-PEG 5000 (ligand)
# chain: B1 chain with K16R, Q23K, K34R, K40R, Q70K, T105K, Q120K
# modifications: SPA-PEG 5000 conjugated to the available PEGylation sites
# B7: G-CSF variant K16/34/40R Q70K Q120K T133K, non-conjugated (ligand)
# chain: B1 chain with K16R, Q23K, K34R, K40R, Q70K, Q120K, T133K
# B8: G-CSF variant K16/34/40R Q70K Q120K T133K conjugated to SPA-PEG 5000 (ligand)
# chain: B1 chain with K16R, Q23K, K34R, K40R, Q70K, Q120K, T133K
# modifications: SPA-PEG 5000 conjugated to the available PEGylation sites
# B9: G-CSF variant K16/34/40R Q70K Q120K S142K, non-conjugated (ligand)
# chain: B1 chain with K16R, Q23K, K34R, K40R, Q70K, Q120K, S142K
# B10: G-CSF variant K16/34/40R Q70K Q120K S142K conjugated to SPA-PEG 5000 (ligand)
# chain: B1 chain with K16R, Q23K, K34R, K40R, Q70K, Q120K, S142K
# modifications: SPA-PEG 5000 conjugated to the available PEGylation sites
# B11: G-CSF variant K16/34/40R Q90K T105K Q120K, non-conjugated (ligand)
# chain: B1 chain with K16R, Q23K, K34R, K40R, Q90K, T105K, Q120K
# B12: G-CSF variant 23R, non-conjugated (ligand)
# chain: B1 chain with Q23R
# B13: G-CSF variant K16/34/40R Q90K T105K Q120K conjugated to SPA-PEG 5000 (ligand)
# chain: B1 chain with K16R, Q23K, K34R, K40R, Q90K, T105K, Q120K
# modifications: SPA-PEG 5000 conjugated to the available PEGylation sites
# B14: G-CSF variant K16/34/40R Q90K T105K T133K, non-conjugated (ligand)
# chain: B1 chain with K16R, Q23K, K34R, K40R, Q90K, T105K, T133K
# B15: G-CSF variant K16/34/40R Q90K T105K T133K conjugated to SPA-PEG 5000 (ligand)
# chain: B1 chain with K16R, Q23K, K34R, K40R, Q90K, T105K, T133K
# modifications: SPA-PEG 5000 conjugated to the available PEGylation sites
# B16: G-CSF variant K16/34/40R Q90K T105K S159K, non-conjugated (ligand)
# chain: B1 chain with K16R, Q23K, K34R, K40R, Q90K, T105K, S159K
# B17: G-CSF variant K16/34/40R Q90K T105K S159K conjugated to SPA-PEG 5000 (ligand)
# chain: B1 chain with K16R, Q23K, K34R, K40R, Q90K, T105K, S159K
# modifications: SPA-PEG 5000 conjugated to the available PEGylation sites
# B18: G-CSF variant K16/34/40R Q90K Q120K T133K, non-conjugated (ligand)
# chain: B1 chain with K16R, Q23K, K34R, K40R, Q90K, Q120K, T133K
# B19: G-CSF variant K16/34/40R Q90K Q120K T133K conjugated to SPA-PEG 5000 (ligand)
# chain: B1 chain with K16R, Q23K, K34R, K40R, Q90K, Q120K, T133K
# modifications: SPA-PEG 5000 conjugated to the available PEGylation sites
# B20: G-CSF variant K16/34/40R Q90K Q120K S142K, non-conjugated (ligand)
# chain: B1 chain with K16R, Q23K, K34R, K40R, Q90K, Q120K, S142K
# B21: G-CSF variant K16/34/40R Q90K Q120K S142K conjugated to SPA-PEG 5000 (ligand)
# chain: B1 chain with K16R, Q23K, K34R, K40R, Q90K, Q120K, S142K
# modifications: SPA-PEG 5000 conjugated to the available PEGylation sites
# B22: G-CSF variant K16/34/40R T105K Q120K T133K, non-conjugated (ligand)
# chain: B1 chain with K16R, Q23K, K34R, K40R, T105K, Q120K, T133K
# B23: G-CSF variant 23R conjugated to SPA-PEG 5000 (ligand)
# chain: B1 chain with Q23R
# modifications: SPA-PEG 5000 conjugated to the available PEGylation sites
# B24: G-CSF variant K16/34/40R T105K Q120K T133K conjugated to SPA-PEG 5000 (ligand)
# chain: B1 chain with K16R, Q23K, K34R, K40R, T105K, Q120K, T133K
# modifications: SPA-PEG 5000 conjugated to the available PEGylation sites
# B25: G-CSF variant K16/34/40R Q120K T133K S142K, non-conjugated (ligand)
# chain: B1 chain with K16R, Q23K, K34R, K40R, Q120K, T133K, S142K
# B26: G-CSF variant K16/34/40R Q120K T133K S142K conjugated to SPA-PEG 5000 (ligand)
# chain: B1 chain with K16R, Q23K, K34R, K40R, Q120K, T133K, S142K
# modifications: SPA-PEG 5000 conjugated to the available PEGylation sites
# B27: G-CSF variant 34R, non-conjugated (ligand)
# chain: B1 chain with Q23K, K34R
# B28: G-CSF variant 34R conjugated to SPA-PEG 5000 (ligand)
# chain: B1 chain with Q23K, K34R
# modifications: SPA-PEG 5000 conjugated to the available PEGylation sites
# B29: G-CSF variant 34A, non-conjugated (ligand)
# chain: B1 chain with Q23K, K34A
# B30: G-CSF variant 34A conjugated to SPA-PEG 5000 (ligand)
# chain: B1 chain with Q23K, K34A
# modifications: SPA-PEG 5000 conjugated to the available PEGylation sites
# B31: G-CSF variant 34Q, non-conjugated (ligand)
# chain: B1 chain with Q23K, K34Q
# B32: G-CSF variant 34Q conjugated to SPA-PEG 5000 (ligand)
# chain: B1 chain with Q23K, K34Q
# modifications: SPA-PEG 5000 conjugated to the available PEGylation sites
# B33: G-CSF variant 40R, non-conjugated (ligand)
# chain: B1 chain with Q23K, K40R
# B34: G-CSF with N-terminal Histidine tag, non-conjugated (ligand)
# chain: MKHQHQHQHQHQHQQTPLGPASSLPQSFLLKCLEQVRKIQGDGAALQEKLCATYKLCHPEELVLLGHSLGIPWAPLSSCPSQALQLAGCLSQLHSGLFLYQGLLQALEGISPELGPTLDTLQLDVADFATTIWQQMEELGMAPALQPTQGAMPAFASAFQRRAGGVLVASHLQSFLEVSYRVLRHLAQP
# B35: G-CSF variant 40R conjugated to SPA-PEG 5000 (ligand)
# chain: B1 chain with Q23K, K40R
# modifications: SPA-PEG 5000 conjugated to the available PEGylation sites
# B36: G-CSF variant K16/23R, non-conjugated (ligand)
# chain: B1 chain with K16R, Q23R
# B37: G-CSF variant K16/23R conjugated to SPA-PEG 5000 (ligand)
# chain: B1 chain with K16R, Q23R
# modifications: SPA-PEG 5000 conjugated to the available PEGylation sites
# B38: G-CSF variant K16/23Q, non-conjugated (ligand)
# chain: B1 chain with K16Q
# B39: G-CSF variant K16/23Q conjugated to SPA-PEG 5000 (ligand)
# chain: B1 chain with K16Q
# modifications: SPA-PEG 5000 conjugated to the available PEGylation sites
# B40: G-CSF variant K34/40R, non-conjugated (ligand)
# chain: B1 chain with Q23K, K34R, K40R
# B41: G-CSF variant K34/40R conjugated to SPA-PEG 5000 (ligand)
# chain: B1 chain with Q23K, K34R, K40R
# modifications: SPA-PEG 5000 conjugated to the available PEGylation sites
# B42: G-CSF variant K16/34R, non-conjugated (ligand)
# chain: B1 chain with K16R, Q23K, K34R
# B43: G-CSF variant K16/34R conjugated to SPA-PEG 5000 (ligand)
# chain: B1 chain with K16R, Q23K, K34R
# modifications: SPA-PEG 5000 conjugated to the available PEGylation sites
# B44: G-CSF variant K16/40R, non-conjugated (ligand)
# chain: B1 chain with K16R, Q23K, K40R
# B45: G-CSF without N-terminal Histidine tag, non-conjugated (ligand)
# chain: B1 chain with Q23K
# B46: G-CSF variant K16/40R conjugated to SPA-PEG 5000 (ligand)
# chain: B1 chain with K16R, Q23K, K40R
# modifications: SPA-PEG 5000 conjugated to the available PEGylation sites
# B47: G-CSF variant K16/23/34R, non-conjugated (ligand)
# chain: B1 chain with K16R, Q23R, K34R
# B48: G-CSF variant K16/23/34R conjugated to SPA-PEG 5000 (ligand)
# chain: B1 chain with K16R, Q23R, K34R
# modifications: SPA-PEG 5000 conjugated to the available PEGylation sites
# Target: T1, human G-CSF receptor
# Assay: cell-based or functional assay
Binder,EC50 (% of hG-CSF) conjugated to SPA-PEG 5000,EC50 (% of hG-CSF) non-conjugated
B1,0.1 % of hG-CSF,
B2,12 % of hG-CSF,
B3,,15 % of hG-CSF
B4,5 % of hG-CSF,
B5,,10 % of hG-CSF
B6,2 % of hG-CSF,
B7,,15 % of hG-CSF
B8,2 % of hG-CSF,
B9,,10 % of hG-CSF
B10,1 % of hG-CSF,
B11,,10 % of hG-CSF
B12,,100 % of hG-CSF
B13,2 % of hG-CSF,
B14,,10 % of hG-CSF
B15,2 % of hG-CSF,
B16,,55 % of hG-CSF
B17,5 % of hG-CSF,
B18,,15 % of hG-CSF
B19,2 % of hG-CSF,
B20,,10 % of hG-CSF
B21,1 % of hG-CSF,
B22,,10 % of hG-CSF
B23,0.1 % of hG-CSF,
B24,1 % of hG-CSF,

Binder,EC50 (% of hG-CSF) conjugated to SPA-PEG 5000,EC50 (% of hG-CSF) non-conjugated
B25,,10 % of hG-CSF
B26,1 % of hG-CSF,
B27,,100 % of hG-CSF
B28,1 % of hG-CSF,
B29,,80 % of hG-CSF
B30,1 % of hG-CSF,
B31,,70 % of hG-CSF
B32,1 % of hG-CSF,
B33,,50 % of hG-CSF
B34,,10 % of hG-CSF
B35,1 % of hG-CSF,
B36,,100 % of hG-CSF
B37,1 % of hG-CSF,
B38,,80 % of hG-CSF
B39,1 % of hG-CSF,
B40,,50 % of hG-CSF
B41,5 % of hG-CSF,
B42,,100 % of hG-CSF
B43,10 % of hG-CSF,
B44,,50 % of hG-CSF
B45,,100 % of hG-CSF
B46,5 % of hG-CSF,
B47,,50 % of hG-CSF
B48,10 % of hG-CSF,
